# From patent US10005838B2, “Milk fat globule epidermal growth factor 8 regulates fatty acid uptake” (REGENTS OF THE UNIVERSITY OF CALIFORNIA, priority 2013, dated 2018)
# B1: rMfge8: recombinant Milk Fat Globule Epidermal Growth Factor 8, an integrin ligand, expressed in High 5 cells (protein)
# chain: ASGDFCDSSLCLNGGTCLTGQDNDIYCLCPEGFTGLVCNETERGPCSPNPCYNDAKCLVTLDTQRGDIFTEYICQCPVGYSGIHCETETNYYNLDGEYMFTTAVPNTAVPTPAPTPDLSNNLASRCSTQLGMEGGAIADSQISASSVYMGFMGLQRWGPELARLYRTGIVNAWTASNYDSKPWIQVNLLRKMRVSGVMTQGASRAGRAEYLKTFKVAYSLDGRKFEFIQDESGGDKEFLGNLDNNSLKVNMFNPTLEAQYIKLYPVSCHRGCTLRFELLGCELHGCSEPLGLKNNTIPDSQMSASSSYKTWNLRAFGWYPHLGRLDNQGKINAWTAQSNSAKEWLQVDLGTQRQVTGIITQGARDFGHIQYVASYKVAHSDDGVQWTVYEEQGSSKVFQGNLDNNSHKKNIFEKPFMARYVRVLPVSWHNRITLRLELLGC
# Legend:
# primary mouse adipocytes = test: Fluorescent fatty acid uptake assay in primary mouse adipocytes; assay type: cell-based
# Description: Uptake of fatty acids by differentiated 3T3-L1 adipocytes or primary mouse adipocytes was assessed using a QBT Fatty Acid Uptake Kit (Molecular Devices). Cells were plated in triplicate in 96-well plates at a concentration of 25,000 cells per well in 100 μl of DMEM/10% FCS. Plates were centrifuged at 1000 rpm for 4 minutes and incubated at 37° Celsius for 4-5 hours. Cells were then serum deprived for 1 hour before treatment with recombinant proteins for 30 minutes followed by the addition of QBT Fatty Acid Uptake solution. In experiments using function-blocking antibodies, antibodies against mouse integrins αv (clone RMV-7) (Takahashi, K. et al., J Immunol 145, 4371-4379 (1990)) β3 (clone 2C9.G2; BD Biosciences) (Ashkar, S. et al., Science 287, 860-864 (2000)), β5 (clone ALULA) (Su, G. et al., American journal of respiratory cell and molecular biology 36, 377-386 (2007)), 131 (clone HA2/5; BD Biosciences, anti-rat with cross-reactivity with mouse (Zovein, A. C. et al., Developmental cell 18, 39-51 (2010)), CD36 (clone MF3; Abcam) (Helming, L. et al., Journal of cell science 122, 453-459 (2009)), human integrins αv (clone L230) (Thomas, G. J. et al., British journal of cancer 87, 859-867 (2002)), β3 (clone Axum-2) (Su, G. et al., Am J Respir Crit Care Med 185, 58-66 (2012)), β5 (clone ALULA), β1 (clone P5D2), cycloRGD and cycloRAD (BACHEM) were added to cells after serum deprivation and cells were incubated for 20 minutes at 4° Celsius prior to addition of recombinant proteins. Plates were incubated in a fluorescent plate reader at 37° Celsius and kinetic readings were acquired every 20 seconds for 30 minutes. Fluorescence values were plotted against time and data was expressed as relative fluorescent units per minutes×10^3.
# Primary mouse adipocytes were obtained from epididymal fat pads by collagenase digestion in Krebs-HEPES (KRBH) buffer followed by filtering through a 100 μm strainer which was then washed with an additional 7.5 mL KRBH buffer. Adipocytes were allowed to float to the top of the mixture for 5 minutes, and the solution under the adipocyte layer was removed with a syringe. The adipocytes were washed with 10 mL KRBH and again allowed to float to the surface, at which point the solution was again removed. This process was repeated for a total of 3 washes. After the last aspiration, adipocytes were resuspended in 0.5-1.0 mL and counted.
# Primary mouse adipocyte progenitors from the vascular stromal fraction were isolated and cultured as reported previously (Tseng et al., 2008). In brief, subcutaneous white adipose tissue was removed, minced and digested with 1 mg/ml collagenase for 45 min at 37° C. in DMEM/F12 medium containing 1% BSA and antibiotics. Digested tissues were filtered through sterile 150 μm nylon mesh and centrifuged at 250 g for 5 min. […]
# primary hepatocytes = test: Fatty acid uptake in primary hepatocytes; assay type: cell-based, mouse
# Description: Uptake of fatty acids by differentiated 3T3-L1 adipocytes or primary mouse adipocytes was assessed using a QBT Fatty Acid Uptake Kit (Molecular Devices). Cells were plated in triplicate in 96-well plates at a concentration of 25,000 cells per well in 100 μl of DMEM/10% FCS. Plates were centrifuged at 1000 rpm for 4 minutes and incubated at 37° Celsius for 4-5 hours. Cells were then serum deprived for 1 hour before treatment with recombinant proteins for 30 minutes followed by the addition of QBT Fatty Acid Uptake solution. […] Plates were incubated in a fluorescent plate reader at 37° Celsius and kinetic readings were acquired every 20 seconds for 30 minutes. Fluorescence values were plotted against time and data was expressed as relative fluorescent units per minutes×10^3.
# The liver was pre-perfused through the portal vein with calcium-free buffer (0.5 mM EDTA, HBSS without Ca^2+ and Mg^2+) and next perfused with collagenase (3.5 U/ml Collegenase II (Worthington) 25 mM HEPES, HBSS with Ca^2+ and Mg^2+). […] Viability of isolated hepatocytes was determined by Trypan blue staining (around 85%) and cell density was approximately 60% confluence. […]
# AKT = test: Western blot, AKT phosphorylation in HepG2 cells; assay type: cell-based, human
# Description: Following tissue preparation and SDS-PAGE, membranes were incubated with a polyclonal antibody against Akt (Cell Signaling Technology), or Rictor (Cell Signaling); Anti-PGC1 alpha antibody (abcam); a monoclonal antibody against Phospho-Akt Ser473 (Cell Signaling), Phospho-Rictor Thr1135 (Cell Signaling), GAPDH (Cell Signaling), or Mfge8 (R&D Systems). For evaluation of total AKT and total Rictor, membranes that been blotted for phospho-AKT and phospho-Rictor were stripped and reprobed. Plasma membrane and post-plasma membrane fractions were isolated as previously described (Nishiumi, S. & Ashida, H., Biosci Biotechnol Biochem 71, 2343-2346 (2007)).
# primary WT adipocytes = test: Glucose uptake assay (2-NBDG) in primary WT adipocytes; assay type: cell-based, mouse; settings: insulin 1 μM
# Description: Uptake of […] by primary cells and cell lines was assessed using the fluorescent D-glucose analog 2-[N-(7-nitrobenz-2-oxa-1,3-diazol-4-yl)amino]-2-deoxy-D-glucose (2-NBDG) (Invitrogen). 2-NBDG has been successfully used as an alternative to 2-deoxyglucose in the measurement of glucose uptake in multiple cell types. Cells were plated in triplicate in 96-well plates at a concentration of 25,000 cells per well in 100 μl of DMEM/10% FCS. Plates were centrifuged at 1000 rpm for 4 minutes and incubated at 37° C. for 4-5 hours. Cells were then serum deprived for 1 hour before treatment with recombinant proteins for 20 minutes followed by the addition of 2-NBDG (100 μM) for 10 min at 37° C. in a humidified atmosphere of 5% CO2. Reaction was stopped by adding a twofold volume of ice-cold PBS and the wells were washed again with ice-cold PBS three times. The fluorescent signal before (autofluorescence) and after adding 100 μM 2-NBDG was measured using fluorescent plate reader at 37° C. (Molecular Device using the 485 nmex and 520 nmemiss filter set). The net increase in fluorescence was normalized to the lowest signal (0 cells/well). […]
molecule,measurement,setting,value
B1,fatty acid uptake in CD36−/− adipocytes,primary mouse adipocytes; CD36−/− adipocytes,did not significantly increase
same,fatty acid uptake in FATP1−/− adipocytes,primary mouse adipocytes; FATP1−/− adipocytes,did not significantly increase
same,fatty acid uptake in Mfge8−/− adipocytes,primary mouse adipocytes; Mfge8−/− primary adipocytes and differentiated adipocyte progenitors,rescued
same,WT fatty acid uptake,primary mouse adipocytes; WT adipocytes,significantly increased
same,fatty acid uptake in Mfge8−/− hepatocytes,primary hepatocytes,rescued
same,phosphorylation of AKT,AKT,induced
same,effect of insulin on glucose uptake,primary WT adipocytes,significantly inhibited
